# What was measured:
# [1] = biological target: synthetic fluorescent peptide carrying the LPXTG sorting motif of PI-1 backbone protein
# [2] = biological target: synthetic fluorescent peptide carrying the LPXTG sorting motif of PI-1 minor ancillary protein
# [3] = biological target: T1, backbone protein of GBS PI-2b (Spb1) expressed from a complementation vector in GBS strain 515Δ2a
# T1 chain: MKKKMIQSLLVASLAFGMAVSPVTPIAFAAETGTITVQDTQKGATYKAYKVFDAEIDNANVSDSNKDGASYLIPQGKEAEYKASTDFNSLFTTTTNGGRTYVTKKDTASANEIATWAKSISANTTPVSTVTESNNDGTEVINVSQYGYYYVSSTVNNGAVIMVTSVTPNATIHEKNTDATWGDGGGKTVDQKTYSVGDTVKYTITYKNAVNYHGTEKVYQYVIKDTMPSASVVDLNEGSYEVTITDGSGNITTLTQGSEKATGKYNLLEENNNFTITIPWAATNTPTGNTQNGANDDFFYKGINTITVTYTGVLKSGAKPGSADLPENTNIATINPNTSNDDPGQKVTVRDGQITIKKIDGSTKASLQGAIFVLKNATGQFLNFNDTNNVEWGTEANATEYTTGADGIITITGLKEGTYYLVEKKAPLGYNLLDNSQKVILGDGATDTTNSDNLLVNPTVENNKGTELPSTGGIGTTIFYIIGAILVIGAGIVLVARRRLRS
# [4] = biological target: recombinant ancillary protein 1 of GBS pilus 2a (AP1-2a)
# [5] = biological target: GFP-… (EGFP from pSpeedET with … added at the C-terminus)
# [6] = biological target: T2, backbone protein PI-1 of GBS (GBS 80)
# T2 chain: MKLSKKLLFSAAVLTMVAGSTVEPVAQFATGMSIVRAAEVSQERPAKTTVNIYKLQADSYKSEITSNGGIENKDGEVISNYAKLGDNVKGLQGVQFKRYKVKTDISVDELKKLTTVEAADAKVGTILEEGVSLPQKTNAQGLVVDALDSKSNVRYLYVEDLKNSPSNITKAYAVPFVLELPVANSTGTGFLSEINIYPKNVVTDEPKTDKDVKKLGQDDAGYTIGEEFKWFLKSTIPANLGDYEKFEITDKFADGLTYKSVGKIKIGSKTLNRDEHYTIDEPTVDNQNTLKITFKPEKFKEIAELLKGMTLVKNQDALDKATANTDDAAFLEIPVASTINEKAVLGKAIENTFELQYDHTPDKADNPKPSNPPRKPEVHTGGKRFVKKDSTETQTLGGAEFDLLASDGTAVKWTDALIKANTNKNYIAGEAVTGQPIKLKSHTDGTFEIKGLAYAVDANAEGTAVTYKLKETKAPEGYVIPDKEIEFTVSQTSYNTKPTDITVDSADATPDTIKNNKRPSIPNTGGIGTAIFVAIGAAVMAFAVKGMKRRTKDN
# [7] = biological target: pilus protein from Streptococcus pneumoniae (RrgB)
# [8] = biological target: T3, recombinant backbone protein of GBS pilus 2a (BP-2a, GBS59), strain 515, BP 30-649
# T3 chain: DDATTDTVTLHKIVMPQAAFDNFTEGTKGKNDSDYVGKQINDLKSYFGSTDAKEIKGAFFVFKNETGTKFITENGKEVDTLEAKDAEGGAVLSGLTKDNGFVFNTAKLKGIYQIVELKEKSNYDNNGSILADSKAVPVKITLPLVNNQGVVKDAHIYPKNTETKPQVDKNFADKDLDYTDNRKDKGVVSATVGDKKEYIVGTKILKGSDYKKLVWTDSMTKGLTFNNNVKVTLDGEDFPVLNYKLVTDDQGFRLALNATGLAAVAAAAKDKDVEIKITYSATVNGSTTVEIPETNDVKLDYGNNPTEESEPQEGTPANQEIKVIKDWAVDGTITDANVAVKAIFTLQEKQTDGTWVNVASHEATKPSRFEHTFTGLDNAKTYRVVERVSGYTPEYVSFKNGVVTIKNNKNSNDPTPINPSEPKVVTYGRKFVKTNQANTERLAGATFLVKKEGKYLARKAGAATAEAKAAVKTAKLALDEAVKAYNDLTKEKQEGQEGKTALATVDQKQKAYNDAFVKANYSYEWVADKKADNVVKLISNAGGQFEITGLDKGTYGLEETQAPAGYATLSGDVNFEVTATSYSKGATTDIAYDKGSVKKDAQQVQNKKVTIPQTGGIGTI
# [9] = biological target: T4, recombinant BP-2a (strain 515) lacking the C-terminal IPQTG sorting signal, BP 30-640
# T4 chain: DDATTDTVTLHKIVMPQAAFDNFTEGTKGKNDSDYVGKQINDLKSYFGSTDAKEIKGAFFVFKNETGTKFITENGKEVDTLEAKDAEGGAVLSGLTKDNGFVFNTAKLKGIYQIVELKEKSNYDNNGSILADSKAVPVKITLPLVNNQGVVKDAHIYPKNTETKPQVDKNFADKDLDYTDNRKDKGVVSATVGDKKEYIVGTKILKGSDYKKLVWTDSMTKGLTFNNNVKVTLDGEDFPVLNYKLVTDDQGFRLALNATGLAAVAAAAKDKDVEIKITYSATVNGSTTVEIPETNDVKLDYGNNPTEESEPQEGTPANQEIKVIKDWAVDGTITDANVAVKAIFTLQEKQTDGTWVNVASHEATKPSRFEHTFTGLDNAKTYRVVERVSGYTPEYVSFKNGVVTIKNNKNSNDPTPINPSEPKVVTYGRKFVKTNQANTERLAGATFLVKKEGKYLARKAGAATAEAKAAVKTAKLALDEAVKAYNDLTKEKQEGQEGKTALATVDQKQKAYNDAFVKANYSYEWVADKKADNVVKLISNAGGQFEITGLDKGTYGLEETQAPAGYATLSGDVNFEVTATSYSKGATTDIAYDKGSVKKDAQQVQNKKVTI
# [10] = biological target: recombinant ancillary protein 2 of GBS pilus 2a (AP2-2a)
# [11] = biological target: recombinant BP-2a (strain 515) with Lys189 replaced by alanine
protein,measurement,setting,value
"recombinant PI-2b SrtC1 (full-length, strain COH1) in fusion with a His-MBP-tag (protein) MAYPSLANYWNSFHQSRAIMDYQDRVTHMDENDYKKIINRAKEYNKQFKTSGMKWHMTSQERLDYNSQLAIDKTGNMGYISIPKINIKLPLYHGTSEKVLQTSIGHLEGSSLPIGGDSTHSILSGHRGLPSSRLFSDLDKLKVGDHWTVSILNETYTYQVDQIRTVKPDDLRDLQIVKGKDYQTLVTCTPYGVNTHRLLVRGHRVPNDNGNALVVAEAIQIEPIYIAPFIAIFLTLILLLISLEVTRRARQRKKILKQAMRKEENNDL","FRET assay, cleavage of fluorescent peptide",[1],The PI-2b SrtC1 and SrtC2 enzymes are able to cleave the fluorescent peptides
same,"FRET assay, cleavage of fluorescent peptide",[2],The PI-2b SrtC1 and SrtC2 enzymes are able to cleave the fluorescent peptides
PI-2b SrtC1 expressed from a complementation vector in GBS strain 515Δ2a (protein) MAYPSLANYWNSFHQSRAIMDYQDRVTHMDENDYKKIINRAKEYNKQFKTSGMKWHMTSQERLDYNSQLAIDKTGNMGYISIPKINIKLPLYHGTSEKVLQTSIGHLEGSSLPIGGDSTHSILSGHRGLPSSRLFSDLDKLKVGDHWTVSILNETYTYQVDQIRTVKPDDLRDLQIVKGKDYQTLVTCTPYGVNTHRLLVRGHRVPNDNGNALVVAEAIQIEPIYIAPFIAIFLTLILLLISLEVTRRARQRKKILKQAMRKEENNDL,pili polymerisation in complemented GBS 515Δ2a (western blot),[3],transfection with BP and SrtC1 resulted in the formation of high molecular weight polymers
GBS sortase C1 of PI-2a lid mutant SrtC1Y86A (protein) ESNNQTQDFERAAKKLSQKEINRRMALAQAYNDSLNNVHLEDPAEKKRIQKGIAEYARMLEVSEKIGIISVPKIGQKLPIFAGSSQEVLSKGAGHLEGTSLPIGGNSTHTVITAHSGIPDKELFSNLKKLKKGDKFYIQNIKETIAYQVDQIKVVTPDNFSDLLVVPGHDYATLLTCTPIMVNTHRLLVRGHRIPYKGPIDEKLIKDGHLNTIYRYLFYISLVIIAWLLWLIKRQRQKNRLSSVRKGIES,in vitro polymerization (HMW structures on SDS-PAGE),[4],some HMW structures were formed
same,in vitro polymerization reaction,[5],the SrtC1Y86A mutant was able to polymerise GFP-IPQTG
same,in vitro polymerization (SDS-PAGE),[6],FIG. 7 shows that mutant sortase enzymes polymerize pilus proteins from a variety of gram positive bacteria
same,in vitro polymerization (SDS-PAGE),[7],FIG. 7 shows that mutant sortase enzymes polymerize pilus proteins from a variety of gram positive bacteria
same,in vitro polymerization (high-molecular-weight bands on SDS-PAGE),[8],"The typical pili pattern of bands with molecular weights above 260 kDa, visible by SDS-page, could be generated when monomeric r-BP was incubated with rSrtC1Y86A"
same,in vitro polymerization (HMW polymers on SDS-PAGE),[9],HMW polymers could not be detected
same,in vitro polymerization (HMW structures on SDS-PAGE),[10],some HMW structures were formed
same,in vitro polymerization (HMW polymers on SDS-PAGE),[11],HMW polymers could be observed
"wild-type GBS sortase C1 of PI-2a, recombinant SrtC1 43-292 (protein) ESNNQTQDFERAAKKLSQKEINRRMALAQAYNDSLNNVHLEDPYEKKRIQKGIAEYARMLEVSEKIGIISVPKIGQKLPIFAGSSQEVLSKGAGHLEGTSLPIGGNSTHTVITAHSGIPDKELFSNLKKLKKGDKFYIQNIKETIAYQVDQIKVVTPDNFSDLLVVPGHDYATLLTCTPIMVNTHRLLVRGHRIPYKGPIDEKLIKDGHLNTIYRYLFYISLVIIAWLLWLIKRQRQKNRLSSVRKGIES",in vitro polymerization (high-molecular-weight bands on SDS-PAGE),[8],showed no formation of high molecular weight bands that could represent pilus polymers
"recombinant PI-2b SrtC2 (full-length, strain COH1) in fusion with a His-MBP-tag (protein) MIRRYSANFLAILGIILVSSGIYWGWYNINQAHQADLTSQHIVKVLDKSITHQVKGSENGELPVKKLDKTDYLGTLDIPNLKLHLPVAANYSFEQLSKTPTRYYGSYLTNNMVICAHNFPYHFDALKNVDMGTDVYFTTTTGQIYHYKISNREIIEPTAIEKVYKTATSDNDWDLSLFTCTKAGVARVLVRCQLIDVKN","FRET assay, cleavage of fluorescent peptide",[1],The PI-2b SrtC1 and SrtC2 enzymes are able to cleave the fluorescent peptides
same,"FRET assay, cleavage of fluorescent peptide",[2],The PI-2b SrtC1 and SrtC2 enzymes are able to cleave the fluorescent peptides

# Source: patent US20150273042
